Measurements published in the domain aggregation screens of Martell et al. (2025).

assay: soluble fraction after stress (log2 fold change); higher = more stays soluble; pooled small domains, quantitative proteomics; conditions: stress: pH 4
In short: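 Custom libraries of small protein domains were pooled and exposed to pH 4. High-throughput quantitative proteomics then measured the log2 fold change in the amount of each domain still soluble, with higher values meaning more stayed soluble. This soluble-fraction fold change stands for aggregation propensity.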

For “HMDEYGEVQALQRAGQTSEALARADRHIAAHPNDPQMRFVKANLLSAGGRAGEAETLLVQLTRD”, which “soluble fraction (log2)” value is on record?
The value was -0.176.

Which “soluble fraction (log2)” value does the source give for “HMDFDLIAIFEEQFARALSPIEINIIKEWKNSNYSDDMIVKALKEAVKSQVFNFRYIERILINWSQNG” here?
The value was -1.64.

For “HMDFDVELTSAGTAKVKVIKAVREATGLGLKEAKDLVDNAPSIVKEGLDEAAANDLKAALEETGASVTL”, which “soluble fraction (log2)” value is on record?
Its value is 0.239.

With “HMDFEEGAVKWFNTKKGYGFITRDQGDDIFVHFRNIKAQSRRSLTDGERVTFVVTEGDKGLQADHVSPV” as the sequence, how does the “soluble fraction (log2)” value read?
Its value is -0.886.

For “HMDFGHWAAHKLEQMSEYRLRHGEAVAIGIALDVLYSVRQGLLARPAAERILSLLERLGFTLFDPELKS”, which “soluble fraction (log2)” value is on record?
Its value is -0.291.

Which “soluble fraction (log2)” value does the source give for “HMDFLKSVDLSKYSKVESLILSHLSKGDFDIDDFIRSFSLGTDEVTRAIVSLEIEGIILRKGNRIFRKKS” here?
The value was 0.0153.

With “HMDFMNSEIKKIVEDLKLTLQSLNYTKNEIKSILPVINKETDNLIKKEKYASFENLLRLAMNHLDNN” as the sequence, how does the “soluble fraction (log2)” value read?
Its value is -0.929.

For “HMDFTPDQIARLDDIISRYKDKPGGLIPVLEEAQVALEYLPIGVQKRIAKGLNLPLSRVYGVVTFYSFFTM”, which “soluble fraction (log2)” value is on record?
The value was -0.451.

For “HMDFVKGDTVVFIDAFMPDHLMTIHKVQGEGILLDGNHKFALAHLIRHASTVELNAKRRLSLTEQS”, which “soluble fraction (log2)” value is on record?
Its value is -0.685.

With “HMDGASLLDIDGDGKVTPTIDGLLLMRWQFGTRGAALIGGISFPAGALRTTVNAIELHMRRLSETT” as the sequence, how does the “soluble fraction (log2)” value read?
Its value is -1.52.

With “HMDGDVAVKGGDGVLEVRLANAANVRVYNLAGRLMADYTGTELHMPLPKGVYMVVAGDNRTKVVV” as the sequence, how does the “soluble fraction (log2)” value read?
Its value is -0.00794.

For “HMDGEINPYTGREYVTNSVRMHPRRIGYVQVYSRKDHKWTDMTEWAFLGEQERKKVLLGKAYEPPVYL”, which “soluble fraction (log2)” value is on record?
Its value is 0.0599.

With “HMDGEMRRKRILQLLSEQTKPLSGTALAKQFGVSRQVIVQDIALLKSKEPAIISTYRGYVLGR” as the sequence, how does the “soluble fraction (log2)” value read?
Its value is 0.142.

For “HMDGFAEFWSAYPKKVGKGAAEASWRKHRPPLQTVLDAVKRQAESDQWRKDGGQFIPNPATWLNQKRWEDD”, which “soluble fraction (log2)” value is on record?
Its value is -0.101.

Which “soluble fraction (log2)” value does the source give for “HMDGIIIPDVSGKSYAEAVATLNEKGFKVEKGEDAGSSLAKDLVSYTNPAAGNRAKSGATISVFVSTGANA” here?
The value was -0.0718.

Which “soluble fraction (log2)” value does the source give for “HMDGKTALQEIVASSGWSPPEYKVSESGPDHDKDFVAYAIVNGVAYPEGHGKSKREAEQVAARIAFEALSK” here?
Its value is -0.00195.

With “HMDGMRASDMVRAALAGAGKTQKELAEHMGWTPQNLSGRLKNNSLTFDELSKALHFAGYEVSMSDANGAG” as the sequence, how does the “soluble fraction (log2)” value read?
Its value is -0.115.

For “HMDGNVPSVEGKPLSGAKYILETYGYKTGTVTEVNSEDVPAGIVISQNPARGTTLANGGSVNLQVSLG”, which “soluble fraction (log2)” value is on record?
The value was 0.238.

For “HMDGPGAGGRFLAEDLGTGKMTLEALQRHYVTLVYSRTGKYEETARRLEIDRRTVKKYLDEELLAELRET”, which “soluble fraction (log2)” value is on record?
The value was -0.0817.

For “HMDGQGIRSITPEYYLSDSATKMPDASSSGWKSVPDDYIDKHYYWVRSKILWDDGTYTTTTPVL”, which “soluble fraction (log2)” value is on record?
Its value is -0.291.

With “HMDGRVQATAEKLRAALDRLARSSVGSPMIERQLTVAALAREARVGRNAIYANHRDILDELIRVRQQRRA” as the sequence, how does the “soluble fraction (log2)” value read?
The value was -0.309.

For “HMDGTAKVAHMLVNELETFNRLKKHEIAYMLHIQPETLSRILNKLTRNGTIEIEKNSVVILNIQELKEIY”, which “soluble fraction (log2)” value is on record?
The value was -0.271.

With “HMDGVNRDKIEYRLDDLYYLKGSDAPYTGKVFEEWSGQQRVETNYIDGKLDGLSESWHENGQKASEVNY” as the sequence, how does the “soluble fraction (log2)” value read?
Its value is -0.831.

With “HMDHFLRRFQVEGLNLEKLLRLAAEREMDLLQVRRSGRRMTGLVAEKRLPELEELAAQGGWALRLGEY” as the sequence, how does the “soluble fraction (log2)” value read?
The value was no less than 0.43.

For “HMDHSSLIKKLRLERGLSQKKLAQGISQRSTLASFENNATKISYNILIQYLDRMNVTLEEYQFMLDGNNL”, which “soluble fraction (log2)” value is on record?
The value was -1.33.

Which “soluble fraction (log2)” value does the source give for “HMDHWQSVNSALELLEVSRRTLYDYISRKKLQTKKEGKYRYVWIDDDVIEEIKTSKSAYIEINN” here?
The value was -1.08.

With “HMDIAATTVKQKIRTLLADEDAARPLSDQKIADALAEDGIDVARRTVAKYREELGIEPSWARKR” as the sequence, how does the “soluble fraction (log2)” value read?
The value was 0.0608.

With “HMDIDLGAVEEQAVKGSGPGGQKMNKTSSGVLLRYRLGEELVLVKWTRERQHSLNRFLALRELVDEIEAR” as the sequence, how does the “soluble fraction (log2)” value read?
The value was -0.099.

For “HMDIFFEKIFNILIGYNQNQENLISEKSILNFHLSHKSNSNFEYIPDEKTPKYIWKYLSNYNLLE”, which “soluble fraction (log2)” value is on record?
Its value is -0.477.

With “HMDIFLPDVKGYDLIPSFRRHLPDIDVIAMTGYNTRALESAVRQQDVLFYMIKPFEASQLKEILEHLVK” as the sequence, how does the “soluble fraction (log2)” value read?
Its value is -0.279.

Which “soluble fraction (log2)” value does the source give for “HMDIKEIIKNRRIELGLTLKEVATAVGVSEGTVSRWESGNITNMKRNKIAALAKTLQIPPTTI” here?
Its value is 0.0875.

Which “soluble fraction (log2)” value does the source give for “HMDIKKHISATLKREMEKRGLNFMEFSTELGIPRTTLQGYLKGTSSPQADSLEELADKLGISPAELVSG” here?
Its value is -0.434.

For “HMDIMLLLYKNIKKRRLEIGMSQEELAQKTGYTSRSSIAKIEKGEVDLQLSKIKLFANALRVSQSELMG”, which “soluble fraction (log2)” value is on record?
Its value is -0.31.

With “HMDIMTVGERVKKLAEKQGISLRELAKKAELSYNTVYSITRRGSERVAPDTISRLANALGVNVNELT” as the sequence, how does the “soluble fraction (log2)” value read?
Its value is no less than 0.43.

With “HMDINEIILKVASEKKTFKTSDVLEALDNNYTKQHVSALISAMVKKGILVKAGSTAKSTYALPENASLL” as the sequence, how does the “soluble fraction (log2)” value read?
The value was 0.0858.
